B1: CPEB3 Ribozyme (parent)
chain: UAACAGGGGGCCACAGCAGAAGCGUUCACGUCGCAGCCCCUGUCAGAUUCUGGUGAAUCUGCGAAUUCUGCUGUAUAUCUC

Variants of: B1
Assay: self-cleavage, relative activity (ratio to wild type); higher = more cleavage; in vitro, sequencing
In short: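 CPEB3 self-cleaving ribozyme mutant libraries were made by rounds of error-prone PCR, barcoded, and transcribed in vitro with T7 RNA polymerase for 5 hours at 37°C. Cleavage occurred during transcription and a 15 min DNase I step before EDTA stop. RNAs were reverse transcribed with template switching and Illumina-sequenced, with DNA sequencing mapping barcodes to variants. Relative activity is the variant's cleaved/total read fraction divided by wild type's (minimum 5 reads), averaged across three batches.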

Row | Variant | self-cleavage
1 | A13C U26A | 0.61
2 | A13C U26C | 0.51
3 | A13C U76A | 1.18
4 | A13C U76C | 0.75
5 | A13G U41G | 0.37
6 | A13G U41A | 0.27
7 | A13G U41C | 0.79
8 | A13G C34G | 0.17
9 | A13G C34U | 0.32
10 | A13G U54A | 1.07
11 | A13G U54C | 0.92
12 | A13G U54G | 0.76
13 | A13U C81U | 1.2
14 | A13C U60G | 0.57
15 | A13C U60C | 0.51
16 | A13C U60A | 0.52
17 | A13G U76C | 0.94
18 | A13G U76A | 0.99
19 | A13G U76G | 1.08
20 | A13G G73C | 1.12
21 | A13G G73A | 1.27
22 | A13G A47U | 0.38
23 | A13G A47C | 0.57
24 | A13G A47G | 0.86

Row | Variant | self-cleavage
25 | A13U U66G | 0.81
26 | A13U U66A | 0.52
27 | A13U U66C | 0.48
28 | A13U U72C | 0.96
29 | A13U U72G | 0.76
30 | A13U U72A | 0.77
31 | A13U U58C | 0.72
32 | A13U U58A | 0.44
33 | A13U U58G | 0.3
34 | A13U C59A | 0.58
35 | A13G A20G | 0.6
36 | A13G A20U | 0.28
37 | A13G A20C | 0.27
38 | A13U A65G | 0.61
39 | A13U A65C | 0.17
40 | A13U U49C | 0.31
41 | A13U U49A | 0.71
42 | A13G U51A | 0.91
43 | A13G U51G | 0.84
44 | A13G U51C | 0.85
45 | A13U G30U | 0.11
46 | A13U G30A | 0.24
47 | A13U U80A | 1.25
48 | A13U U80G | 1.27

Row | Variant | self-cleavage
49 | A13U U80C | 1.18
50 | A13C U51C | 1.11
51 | A13C U51A | 1.01
52 | A13C U51G | 0.88
53 | A13U U74A | 1.23
54 | A13U U74C | 1.28
55 | A13U C79U | 1.31
56 | A13U C79A | 1.28
57 | A13U U51G | 1.27
58 | A13U U51A | 1.21
59 | A13U U51C | 0.94
60 | A13U | 1.17
61 | A13G | 0.94
62 | A13U U41A | 0.26
63 | A13U U41C | 1.2
64 | A13G U31C | 0.45
65 | A13G U31A | 0.5
66 | A13G U31G | 0.51
67 | A13U C62U | 0.22
68 | A13U G53A | 1.27
69 | A13G C71G | 0.12
70 | A13G C71U | 0.39
71 | A13G C71A | 0.25
72 | A13C U67C | 0.19

Row | Variant | self-cleavage
73 | A13G A64U | 0.32
74 | A13G A64G | 0.76
75 | A13G A64C | 0.46
76 | A13G C38A | 0.13
77 | A13G C38G | 0.28
78 | A13G C38U | 0.83
79 | A13U A77G | 1.03
80 | A13U A77U | 1.22
81 | A13G C37A | 0.18
82 | A13G C37U | 0.53
83 | A13U C68A | 0.54
84 | A13U C68U | 1.21
85 | A13U C44A | 0.29
86 | A13U C44U | 0.23
87 | A13G G33A | 0.21
88 | A13G G33C | 0.17
89 | A13G G33U | 0.24
90 | A13G U78C | 0.94
91 | A13G U78A | 1.01
92 | A13U U25C | 0.28
93 | A13U U25A | 0.26
94 | A13G U48A | 0.31
95 | A13G U48C | 0.44
96 | A13U G16U | 0.47

Row | Variant | self-cleavage
97 | A13U G63U | 1.09
98 | A13U G63A | 1.05
99 | A13G U66C | 0.35
100 | A13G U66A | 0.45
101 | A13G U66G | 0.31
102 | A13G C39U | 1
103 | A13G C39A | 0.28
104 | A13G C39G | 0.27
105 | A13G C68U | 0.66
106 | A13U C17U | 0.92
107 | A13U C17G | 0.48
108 | A13G G22C | 0.12
109 | A13G G22A | 0.19
110 | A13C U74C | 1.18
111 | A13C U43C | 0.62
112 | A13C U25C | 0.31
113 | A13C U25A | 0.34
114 | A13U A35G | 1.3
115 | A13U A35U | 0.75
116 | A13U A35C | 0.69
117 | A13U G61A | 0.91
118 | A13U C14U | 1.26
119 | A13U G55U | 0.83
120 | A13G A21U | 0.35

Row | Variant | self-cleavage
121 | A13G A21G | 0.5
122 | A13U G24A | 0.26
123 | A13U A20G | 0.93
124 | A13U A20U | 0.54
125 | A13U A64U | 0.47
126 | A13U A64C | 0.27
127 | A13U A64G | 1.09
128 | A13G A45U | 0.4
129 | A13G A45G | 0.67
130 | A13G A45C | 0.34
131 | A13U C37U | 1.09
132 | A13G A28G | 0.39
133 | A13G A28U | 0.54
134 | A13G A28C | 0.43
135 | A13U U54C | 1.1
136 | A13U U54G | 1.01
137 | A13U U54A | 1.18
138 | A13G U49A | 0.41
139 | A13G U49C | 0.25
140 | A13G C81A | 1.23
141 | A13U A75U | 1.28
142 | A13U A75G | 1.25
143 | A13U A28G | 0.72
144 | A13U A28U | 1.01

Row | Variant | self-cleavage
145 | A13U A28C | 0.64
146 | A13C U49C | 0.42
147 | A13C U72C | 0.83
148 | A13C U72A | 0.24
149 | A13G C62U | 0.23
150 | A13G C62A | 0.18
151 | A13G C40U | 0.76
152 | A13G C40G | 0.23
153 | A13G C40A | 0.21
154 | A13G A15G | 0.35
155 | A13G A15U | 0.43
156 | A13G A15C | 0.81
157 | A13G C79U | 1.14
158 | A13U C27A | 0.17
159 | A13U C27U | 0.24
160 | A13U U26C | 0.64
161 | A13U U26G | 0.4
162 | A13U U26A | 1.08
163 | A13G G36A | 0.35
164 | A13G G36U | 0.2
165 | A13G U58G | 0.2
166 | A13G U58C | 0.46
167 | A13U G19A | 0.17
